Measured values from PMC7867571.

Target: H. influenzae VapXD2 heterotrimer (VapD homodimer with one VapX) (Haemophilus influenzae (non-typeable, strain 86-028NP)) (UniProt P71351)
Test: crystal structure

## H. influenzae VapXD2 heterotrimer (VapD homodimer with one VapX) (from UniProt P71351 1-91; Q4QN94 1-63) (complex)
  stoichiometry N: 3
